Substitutions are numbered along the chain they refer to. Where “and” joins values, the source holds several entries; their conditions need not be identical. Equal values may be shown once.
Columns and labels:
[1] = target: T1, purified recombinant human DLL4 extracellular domain (ECD) (human, UniProt Q9NR61 27-529); test: SPR (Biacore), DVD captured via anti-human Fc, DLL4 ECD injected, 25 C
T1 construct: extracellular domain; also called human DLL4529; huDLL4
Description: For DLL4 binding kinetic measurements the assay buffer was HBS-EPB: 10 mM Hepes, pH7.5, 150 mM NaCl, 3 mM EDTA, 0.005% Tween 20, 0.1 mg/ml BSA (Sigma A7906). For VEGF binding kinetic measurements the assay buffer was HBS-EP+(3N01B): 10 mM Hepes, pH7.5, 300 mM NaCl, 3 mM EDTA, 0.05% Tween 20, 0.1 mg/ml BSA (Sigma A7906). For example, approximately 9000 RU of goat anti-human Fc specific polyclonal antibody (Thermo Fisher Scientific Inc., Rockford, Ill.) diluted in 10 mM sodium acetate (pH 4.5) is directly immobilized across a CM5 research grade biosensor chip using a standard amine coupling kit according to manufacturer's instructions and procedures at 25 ug/ml. Unreacted moieties on the biosensor surface are blocked with ethanolamine. For kinetic analysis, rate equations derived from the 1:1 Langmuir binding model are fitted simultaneously to multiple antigen injections (using global fit analysis) with the use of Scrubber 2 (BioLogic Software), Biacore Biaevaluation 4.0.1 software or Biacore T100 Evaluation software. Purified antibodies are diluted in running buffer for capture across goat anti-human Fc reaction surfaces. Antibodies to be captured as a ligand (1 ug/ml) are injected over reaction matrices at a flow rate of 10 ul/min. During the assay, all measurements are referenced against the capture surface alone (i.e. with no captured antibody). […] The equilibrium dissociation constant KD (M) of the reaction between antibodies and the target antigen is then calculated from the kinetic rate constants by the following formula: KD=Koff/Kₒₙ. Binding is recorded as a function of time and kinetic rate constants are calculated.

[2] = target: T1, purified recombinant human DLL4 …; test: Notch competition ELISA: inhibition of biotin DLL4 ECD binding to coated human Notch-1
Description: Plates were then washed 3× with wash buffer (PBS, 0.05% Tween-20) and blocked with 200 μl/well blocking buffer (D-PBS, 1% BSA, 1 mM CaCl₂, 0.05% Tween-20) for 1 hour at 25° C. […] Assay plates were washed after blocking, and incubated with DLL4/antibody mixtures (100 μl/well, 1 hour at 25° C. with shaking). Plates were washed again and 100 μl/well of streptavidin conjugated with HRP (Fitzgerald #65R-S104PHRPx, diluted 1:5,000 in blocking buffer) was added for 1 hour at 25° C. with shaking. After a final wash, plates were developed using 100 μl/well substrate (TMB Sigma #T8665), and the reaction was stopped using 100 μl/well 1N HCl, and the absorbance was read at 450 nm. Data was analyzed using Graphpad Prism software and IC₅₀ values were reported as the concentration of antibody required to achieve 50% reduction of DLL4 binding to Notch1.

[3] = target: human DLL4, full-length, expressed on HEK293G cells (human, UniProt Q9NR61 27-685); test: cell-based or functional assay

B1: Av-GS6-h1A11.1 (bispecific antibody, human IgG1)
VH: EVQLVESGGGLVQPGGSLRLSCAASGYTFTNYGMNWVRQAPGKGLEWVGWINTYTGEPTYAADFKRRFTFSLDTSKSTAYLQMNSLRAEDTAVYYCAKYPHYYGSSHWYFDVWGQGTLVTVSSGGGGSGEVQLVESGGGLVQPGGSLRLSCAASGFTFSNFPMAWVRQAPGKGLEWVATISSSDGTTYYRDSVKGRFTISRDNAKNSLYLQMNSLRAEDTAVYYCARGYYNSPFAYWGQGTLVTVSS
VL: DIQMTQSPSSLSASVGDRVTITCSASQDISNYLNWYQQKPGKAPKVLIYFTSSLHSGVPSRFSGSGSGTDFTLTISSLQPEDFATYYCQQYSTVPWTFGQGTKVEIKRGGSGGDIQMTQSPSSLSASVGDRVTITCRASEDIYSNLAWYQQKPGKAPKLLIYDTNNLADGVPSRFSGSGSGTDFTLTISSLQPEDFATYYCQQYNNYPPTFGQGTKLEIKR
notes: DVD-Ig
Q: B1 was tested. Which Kd [1] did it give?
A: 50 nM

Q: What about the IC50 [2] of the same binder?
A: 3.41 nM

B2: Av-SL-h1A11.1 (bispecific antibody, human IgG1)
VH: B1 VH with G124A, G125S, G126T, G127K, S128G, G129P
VL: DIQMTQSPSSLSASVGDRVTITCSASQDISNYLNWYQQKPGKAPKVLIYFTSSLHSGVPSRFSGSGSGTDFTLTISSLQPEDFATYYCQQYSTVPWTFGQGTKVEIKRTVAAPSVFIFPPDIQMTQSPSSLSASVGDRVTITCRASEDIYSNLAWYQQKPGKAPKLLIYDTNNLADGVPSRFSGSGSGTDFTLTISSLQPEDFATYYCQQYNNYPPTFGQGTKLEIKR
notes: DVD-Ig
Q: With B2 as the binder, how does the IC50 [2] read?
A: 7.38 nM

B3: Av-LS-h1A11.1 (bispecific antibody, human IgG1)
VH: EVQLVESGGGLVQPGGSLRLSCAASGYTFTNYGMNWVRQAPGKGLEWVGWINTYTGEPTYAADFKRRFTFSLDTSKSTAYLQMNSLRAEDTAVYYCAKYPHYYGSSHWYFDVWGQGTLVTVSSASTKGPSVFPLAPEVQLVESGGGLVQPGGSLRLSCAASGFTFSNFPMAWVRQAPGKGLEWVATISSSDGTTYYRDSVKGRFTISRDNAKNSLYLQMNSLRAEDTAVYYCARGYYNSPFAYWGQGTLVTVSS
VL: B1 VL with G109T, G110V, S111A, G112A, G113P
notes: DVD-Ig
Q: For B3, which IC50 [2] is on record?
A: 2.77 nM

B4: Av-SS-h1A11.1 (bispecific antibody, human IgG1)
VH: B1 VH with G124A, G125S, G126T, G127K, S128G, G129P
VL: B1 VL with G109T, G110V, S111A, G112A, G113P
notes: DVD-Ig
Q: B4 was tested. Which IC50 [2] did it give?
A: 3500 nM

B5: h1A11.1-GS10-Av (bispecific antibody, human IgG1)
VH: EVQLVESGGGLVQPGGSLRLSCAASGFTFSNFPMAWVRQAPGKGLEWVATISSSDGTTYYRDSVKGRFTISRDNAKNSLYLQMNSLRAEDTAVYYCARGYYNSPFAYWGQGTLVTVSSGGGGSGGGGSEVQLVESGGGLVQPGGSLRLSCAASGYTFTNYGMNWVRQAPGKGLEWVGWINTYTGEPTYAADFKRRFTFSLDTSKSTAYLQMNSLRAEDTAVYYCAKYPHYYGSSHWYFDVWGQGTLVTVSS
VL: DIQMTQSPSSLSASVGDRVTITCRASEDIYSNLAWYQQKPGKAPKLLIYDTNNLADGVPSRFSGSGSGTDFTLTISSLQPEDFATYYCQQYNNYPPTFGQGTKLEIKRGGSGGGGSGDIQMTQSPSSLSASVGDRVTITCSASQDISNYLNWYQQKPGKAPKVLIYFTSSLHSGVPSRFSGSGSGTDFTLTISSLQPEDFATYYCQQYSTVPWTFGQGTKVEIKR
notes: DVD-Ig; also called h1A11.GS10-Av
Q: Which results are given for B5?
A: Kd [1]: 9.3 nM; IC50 [2]: 0.65 nM

B6: h1A11.1 humanized anti-DLL4 mAb (antibody, V domains shown)
VH: EVQLVESGGGLVQPGGSLRLSCAASGFTFSNFPMAWVRQAPGKGLEWVATISSSDGTTYYRDSVKGRFTISRDNAKNSLYLQMNSLRAEDTAVYYCARGYYNSPFAYWGQGTLVTVSS
VL: DIQMTQSPSSLSASVGDRVTITCRASEDIYSNLAWYQQKPGKAPKLLIYDTNNLADGVPSRFSGSGSGTDFTLTISSLQPEDFATYYCQQYNNYPPTFGQGTKLEIKR
Q: How did the “IC50 (nM), DLL4-Notch reporter assay, h1A11.1 + Av mixture, 0 nM VEGF” value [3] turn out when B6 was run?
A: 8.64 nM and 9.17 nM

Q: And the “IC50 (nM), DLL4-Notch reporter assay, h1A11.1 + Av mixture, 6 nM BSG2 (negative control protein) present” value [3]?
A: 9.55 nM

Q: And the “IC50 (nM), DLL4-Notch reporter assay, h1A11.1 + Av mixture, 6 nM VEGF present” value [3]?
A: 9.97 nM

Q: And the “IC50 (nM), DLL4-Notch reporter assay, h1A11.1 + Av mixture, 150 nM BSG2 (negative control protein) present” value [3]?
A: 10.9 nM

Q: And the “IC50 (nM), DLL4-Notch reporter assay, h1A11.1 + Av mixture, 150 nM VEGF present” value [3]?
A: 10.3 nM

B7: Av-GS10-h1A11.1 (bispecific antibody, human IgG1)
VH: EVQLVESGGGLVQPGGSLRLSCAASGYTFTNYGMNWVRQAPGKGLEWVGWINTYTGEPTYAADFKRRFTFSLDTSKSTAYLQMNSLRAEDTAVYYCAKYPHYYGSSHWYFDVWGQGTLVTVSSGGGGSGGGGSEVQLVESGGGLVQPGGSLRLSCAASGFTFSNFPMAWVRQAPGKGLEWVATISSSDGTTYYRDSVKGRFTISRDNAKNSLYLQMNSLRAEDTAVYYCARGYYNSPFAYWGQGTLVTVSS
VL: DIQMTQSPSSLSASVGDRVTITCSASQDISNYLNWYQQKPGKAPKVLIYFTSSLHSGVPSRFSGSGSGTDFTLTISSLQPEDFATYYCQQYSTVPWTFGQGTKVEIKRGGSGGGGSGDIQMTQSPSSLSASVGDRVTITCRASEDIYSNLAWYQQKPGKAPKLLIYDTNNLADGVPSRFSGSGSGTDFTLTISSLQPEDFATYYCQQYNNYPPTFGQGTKLEIKR
notes: DVD-Ig
Q: With B7 as the binder, how does the Kd [1] read?
A: 29 nM

Q: And the IC50 [2]?
A: 1.5 nM

B8: Av-LL-h1A11.1 (bispecific antibody, human IgG1)
VH: B3 VH
VL: B2 VL
notes: DVD-Ig
Q: Which IC50 [2] does the source give for B8 here?
A: 2.43 nM

B9: Av-GS14-h1A11.1 (bispecific antibody, human IgG1)
VH: EVQLVESGGGLVQPGGSLRLSCAASGYTFTNYGMNWVRQAPGKGLEWVGWINTYTGEPTYAADFKRRFTFSLDTSKSTAYLQMNSLRAEDTAVYYCAKYPHYYGSSHWYFDVWGQGTLVTVSSGGGGSGGGGSGGGGEVQLVESGGGLVQPGGSLRLSCAASGFTFSNFPMAWVRQAPGKGLEWVATISSSDGTTYYRDSVKGRFTISRDNAKNSLYLQMNSLRAEDTAVYYCARGYYNSPFAYWGQGTLVTVSS
VL: DIQMTQSPSSLSASVGDRVTITCSASQDISNYLNWYQQKPGKAPKVLIYFTSSLHSGVPSRFSGSGSGTDFTLTISSLQPEDFATYYCQQYSTVPWTFGQGTKVEIKRGGSGGGGSGGGSDIQMTQSPSSLSASVGDRVTITCRASEDIYSNLAWYQQKPGKAPKLLIYDTNNLADGVPSRFSGSGSGTDFTLTISSLQPEDFATYYCQQYNNYPPTFGQGTKLEIKR
notes: DVD-Ig
Q: How did the Kd [1] turn out when B9 was run?
A: 34 nM

Q: What about the IC50 [2] of the same binder?
A: 1.54 nM

B10: h1A11.1-GS14-Av (bispecific antibody, human IgG1)
VH: EVQLVESGGGLVQPGGSLRLSCAASGFTFSNFPMAWVRQAPGKGLEWVATISSSDGTTYYRDSVKGRFTISRDNAKNSLYLQMNSLRAEDTAVYYCARGYYNSPFAYWGQGTLVTVSSGGGGSGGGGSGGGGEVQLVESGGGLVQPGGSLRLSCAASGYTFTNYGMNWVRQAPGKGLEWVGWINTYTGEPTYAADFKRRFTFSLDTSKSTAYLQMNSLRAEDTAVYYCAKYPHYYGSSHWYFDVWGQGTLVTVSS
VL: DIQMTQSPSSLSASVGDRVTITCRASEDIYSNLAWYQQKPGKAPKLLIYDTNNLADGVPSRFSGSGSGTDFTLTISSLQPEDFATYYCQQYNNYPPTFGQGTKLEIKRGGSGGGGSGGGGSDIQMTQSPSSLSASVGDRVTITCSASQDISNYLNWYQQKPGKAPKVLIYFTSSLHSGVPSRFSGSGSGTDFTLTISSLQPEDFATYYCQQYSTVPWTFGQGTKVEIKR
notes: DVD-Ig
Q: For B10, which Kd [1] is on record?
A: 9.7 nM

Q: And the IC50 [2]?
A: 0.68 nM
